Results as given in publication PMC7195389, “Inter-domain dynamics in the chaperone SurA and multi-site binding to its outer membrane protein clients” (Nature Communications, 2020).

How the values were obtained:
Conditions in all cases: both partners purified
[1] = target: T1, SurA Q85C-E301C labelled with Alexa Fluor 488 and Alexa Fluor 594 (E. coli, UniProt P0ABZ6 21-428, Q85C | E301C, Alexa Fluor 488 C5 maleimide and Alexa Fluor 594 C5 maleimide, stochastically, on Cys 85 and Cys 301); assay: FRET or BRET; intramolecular smFRET (ALEX) of ~50 pM doubly labelled SurA variant with 1.5 µM WEYIPNV, 50 mM Tris-HCl pH 8.0, 25 °C; change of the inter-domain E_FRET distribution against apo-SurA
T1 construct: gene numbering with the signal peptide; also called core-P2 SurA variant; SurA core-P2; source: E. coli BL21(DE3), purified as wild type with 10 mM DTT; labelled with Alexa Fluor maleimides, SEC; not shown: His6, N-terminal, cleaved
T1 sequence (looked up): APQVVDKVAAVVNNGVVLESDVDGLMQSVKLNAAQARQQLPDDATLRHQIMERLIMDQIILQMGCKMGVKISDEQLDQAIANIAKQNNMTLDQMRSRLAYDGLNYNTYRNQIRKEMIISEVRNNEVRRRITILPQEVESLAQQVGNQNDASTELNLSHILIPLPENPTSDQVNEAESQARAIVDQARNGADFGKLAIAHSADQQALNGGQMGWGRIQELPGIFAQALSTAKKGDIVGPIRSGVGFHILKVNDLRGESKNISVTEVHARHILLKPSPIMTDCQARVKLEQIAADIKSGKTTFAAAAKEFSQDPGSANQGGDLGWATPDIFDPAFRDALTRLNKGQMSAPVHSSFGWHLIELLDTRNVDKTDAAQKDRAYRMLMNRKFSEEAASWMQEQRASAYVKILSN

[2] = target: T2, SurA Q85C-N193C labelled with Alexa Fluor 488 and Alexa Fluor 594 (E. coli, UniProt P0ABZ6 21-428, Q85C | N193C, Alexa Fluor 488 C5 maleimide and Alexa Fluor 594 C5 maleimide, stochastically, on Cys 85 and Cys 193); assay: as above
T2 construct: gene numbering with the signal peptide; also called core-P1 SurA variant; SurA core-P1; source: E. coli BL21(DE3), purified as wild type with 10 mM DTT; labelled with Alexa Fluor maleimides, SEC; not shown: His6, N-terminal, cleaved
T2 sequence (looked up): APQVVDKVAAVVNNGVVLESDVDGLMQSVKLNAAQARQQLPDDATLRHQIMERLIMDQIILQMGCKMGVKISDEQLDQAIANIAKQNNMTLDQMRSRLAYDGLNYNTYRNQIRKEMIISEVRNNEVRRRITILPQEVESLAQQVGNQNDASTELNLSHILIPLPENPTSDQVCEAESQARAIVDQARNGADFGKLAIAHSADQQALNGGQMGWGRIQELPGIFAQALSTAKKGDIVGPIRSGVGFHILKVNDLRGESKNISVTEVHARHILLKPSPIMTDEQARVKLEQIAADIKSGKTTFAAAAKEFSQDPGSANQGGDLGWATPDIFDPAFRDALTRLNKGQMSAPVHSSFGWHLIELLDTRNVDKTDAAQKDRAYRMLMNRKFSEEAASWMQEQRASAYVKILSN

[3] = target: T3, SurA (E. coli periplasmic chaperone, wild type, mature sequence) (E. coli, UniProt P0ABZ6 21-428); assay: HDX-MS; differential HDX of 8 µM SurA without and with 110 µM WEYIPNV, 10 mM potassium phosphate pH 8.0, 4 °C, 0.5-120 min
T3 construct: numbering is the gene numbering with the signal peptide; also called SurA WT; apo-SurA; source: E. coli BL21(DE3), purified (HisTrap, denatured on-column with 6 M Gdn-HCl, TEV cleavage, second HisTrap); not shown: His6, N-terminal, cleaved
T3 sequence (looked up): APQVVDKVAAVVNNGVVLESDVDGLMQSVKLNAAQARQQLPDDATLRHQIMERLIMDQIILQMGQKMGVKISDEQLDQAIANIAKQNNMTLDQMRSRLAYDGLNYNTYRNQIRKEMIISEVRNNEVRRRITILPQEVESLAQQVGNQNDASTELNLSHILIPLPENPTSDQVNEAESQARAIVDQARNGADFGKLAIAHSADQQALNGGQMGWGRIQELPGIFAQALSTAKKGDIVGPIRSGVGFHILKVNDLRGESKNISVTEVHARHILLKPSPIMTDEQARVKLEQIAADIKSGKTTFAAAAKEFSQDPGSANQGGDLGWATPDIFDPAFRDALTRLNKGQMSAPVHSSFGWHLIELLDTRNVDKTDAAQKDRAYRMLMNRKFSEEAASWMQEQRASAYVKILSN

[4] = target: T3, SurA (E. coli periplasmic chaperone, …); assay: MST; 50 nM Alexa Fluor 488-labelled Cys-OmpX, SurA titrated 100 µM-3 nM, 0.24 M urea, 50 mM Tris-HCl pH 8.0; fitted to the Hill equation; apparent
[5] = target: T2, SurA Q85C-N193C labelled with Alexa …; assay: FRET or BRET; intramolecular smFRET (ALEX) of ~50 pM doubly labelled SurA variant with 1.5 µM OmpX or OmpF, 50 mM Tris-HCl pH 8.0, 0.24 M urea, 25 °C; change of the inter-domain E_FRET distribution against apo-SurA
[6] = target: T3, SurA (E. coli periplasmic chaperone, …); assay: cross-linking; DSBU, 5 µM SurA, 5 µM OmpX, 0.24 M urea, 10 mM potassium phosphate pH 8.0, 45 min, room temperature; SDS-PAGE band, in-gel digestion, LC-MS/MS
[7] = target: T3, SurA (E. coli periplasmic chaperone, …); assay: cross-linking; tag-transfer photo-cross-linking: 10 µM SurA, 5 µM MTS-diazirine-labelled OmpX Cys variant, 0.24 M urea, 10 mM potassium phosphate pH 8.0, UV LED 30 s; SDS-PAGE, LC-MS/MS
[8] = target: T3, SurA (E. coli periplasmic chaperone, …); assay: HDX-MS; differential HDX of 8 µM SurA without and with 8 µM OmpX or OmpF, 10 mM potassium phosphate pH 8.0, 0.24 M urea, 4 °C, 0.5-120 min

## WEYIPNV [WEYIPNV peptide]
[1]
  binding result: binds
[2]
  binding result: binds
[3]
  binding result: binds

B1: Cys-OmpX labelled with Alexa Fluor 488 (natural protein, E. coli)
chain: MGSCATSTVTGGYAQSDAQGQMNKMGGFNLKYRYEEDNSPLGVIGSFTYTEKSRTASSGDYNKNQYYGITAGPAYRINDWASIYGVVGVGYGKFQTTEYPTYKHDTSDYGFSYGAGLQFNPMENVALDFSYEQSRIRSVDVGTWIAGVGYRF
modifications: Alexa Fluor 488 C5 maleimide on the added Cys
notes: N-terminal Met followed by the added residues Gly-Ser-Cys (named in words); also called labelled Cys-OmpX; source: E. coli BL21[DE3], inclusion bodies, purified; labelled with Alexa Fluor 488 C5 maleimide
[4]
  Kd: ~800 nM

B2: OmpX (E. coli outer membrane protein X, mature sequence, unfolded) (natural protein)
chain: MATSTVTGGYAQSDAQGQMNKMGGFNLKYRYEEDNSPLGVIGSFTYTEKSRTASSGDYNKNQYYGITAGPAYRINDWASIYGVVGVGYGKFQTTEYPTYKHDTSDYGFSYGAGLQFNPMENVALDFSYEQSRIRSVDVGTWIAGVGYRF
notes: N-terminal Met residue of the construct (named in words); Unfolded client in 0.24 M urea; source: E. coli BL21[DE3], inclusion bodies, purified (gel filtration in 6 M Gdn-HCl); urea-denatured and diluted into the assay
[5]
  binding result: binds
[6]
  binding result: binds

B3: OmpX V167C labelled with MTS-diazirine (natural protein, E. coli)
chain: MATSTVTGGYAQSDAQGQMNKMGGFNLKYRYEEDNSPLGVIGSFTYTEKSRTASSGDYNKNQYYGITAGPAYRINDWASIYGVVGVGYGKFQTTEYPTYKHDTSDYGFSYGAGLQFNPMENVALDFSYEQSRIRSVDVGTWIAGCGYRF
modifications: MTS-diazirine on Cys 167
notes: N-terminal Met residue of the OmpX construct (named in words); source: purified, conjugated with MTS-diazirine in 6 M guanidine-HCl
[7]
  binding result: binds

B4: OmpF (E. coli outer membrane protein F, mature sequence, unfolded) (natural protein, UniProt P02931 23-362, looked up)
chain: AEIYNKDGNKVDLYGKAVGLHYFSKGNGENSYGGNGDMTYARLGFKGETQINSDLTGYGQWEYNFQGNNSEGADAQTGNKTRLAFAGLKYADVGSFDYGRNYGVVYDALGYTDMLPEFGGDTAYSDDFFVGRVGGVATYRNSNFFGLVDGLNFAVQYLGKNERDTARRSNGDGVGGSISYEYEGFGIVGAYGAADRTNLQEAQPLGNGKKAEQWATGLKYDANNIYLAANYGETRNATPITNKFTNTSGFANKTQDVLLVAQYQFDFGLRPSIAYTKSKAKDVEGIGDVDLVNYFEVGATYYFNKNMSTYVDYIINQIDSDNKLGVGSDDTVAVGIVYQF
notes: source: E. coli BL21[DE3], inclusion bodies, purified (gel filtration in 6 M Gdn-HCl); urea-denatured and diluted into the assay
[8]
  binding result: binds
[5]
  binding result: binds

B5: OmpX M41C labelled with MTS-diazirine (natural protein, E. coli)
chain: MATSTVTGGYAQSDAQGQCNKMGGFNLKYRYEEDNSPLGVIGSFTYTEKSRTASSGDYNKNQYYGITAGPAYRINDWASIYGVVGVGYGKFQTTEYPTYKHDTSDYGFSYGAGLQFNPMENVALDFSYEQSRIRSVDVGTWIAGVGYRF
modifications: MTS-diazirine on Cys 41
notes: as for B3
[7]
  binding result: binds

B6: OmpX K122C labelled with MTS-diazirine (natural protein, E. coli)
chain: MATSTVTGGYAQSDAQGQMNKMGGFNLKYRYEEDNSPLGVIGSFTYTEKSRTASSGDYNKNQYYGITAGPAYRINDWASIYGVVGVGYGKFQTTEYPTYCHDTSDYGFSYGAGLQFNPMENVALDFSYEQSRIRSVDVGTWIAGVGYRF
modifications: MTS-diazirine on Cys 122
notes: as for B3
[7]
  binding result: binds

B7: OmpX I102C labelled with MTS-diazirine (natural protein, E. coli)
chain: MATSTVTGGYAQSDAQGQMNKMGGFNLKYRYEEDNSPLGVIGSFTYTEKSRTASSGDYNKNQYYGITAGPAYRINDWASCYGVVGVGYGKFQTTEYPTYKHDTSDYGFSYGAGLQFNPMENVALDFSYEQSRIRSVDVGTWIAGVGYRF
modifications: MTS-diazirine on Cys 102
notes: as for B3
[7]
  binding result: binds
